In PMC2978108:

Target: recombinant GRD domain of GAPA (37 kDa GRD polypeptide) (D. discoideum)
Test: SEC; analytical gel filtration on Sephadex G75 (SMART system) of the purified GRD domain; OD280

With “recombinant GRD domain of GAPA (37 kDa GRD polypeptide) (domain or fragment)” the stoichiometry N was 3.
